According to patent publication CN1827647A (SHANGHAI ZHANGJIANG BIO TECH C, dated 2006):

Molecular target: T1, EGFR蛋白 (表皮生长因子受体, 购自晶美生物公司) (UniProt P00533 25-645, limits assumed)
T1 construct: Bought protein used as the coating antigen; also called c-erbB1/Her1
Test: Scatchard analysis; concluding sentence on the result

Kd: ~1 nM
B1: 3C6单克隆抗体 (重组人源抗EGFR单克隆抗体, produced by CHO cell line 3C6) (antibody, V domains shown)
VH: QVQLKESGPGLVAPSQSLSITCTVSGFSLTNYGVHWVRQPPGKGLEWLGVIWSGGNTDYNTPFTSRLNISKDNSKSQVFLRMYSLQTDDTARYYCARALTYYDYEFAYWGQGTLVTVSS
VL: not shown
